The record followed here is US20250270339A1 (Alector, published 2025).

In test [1] the target is T1, huTfR Apical Domain-Avi-His (human, biotin on the Avi tag (BirA) where captured on streptavidin).
T1 construct: also called huTfR apical Avi-His; hTfR Apical
T1 chain: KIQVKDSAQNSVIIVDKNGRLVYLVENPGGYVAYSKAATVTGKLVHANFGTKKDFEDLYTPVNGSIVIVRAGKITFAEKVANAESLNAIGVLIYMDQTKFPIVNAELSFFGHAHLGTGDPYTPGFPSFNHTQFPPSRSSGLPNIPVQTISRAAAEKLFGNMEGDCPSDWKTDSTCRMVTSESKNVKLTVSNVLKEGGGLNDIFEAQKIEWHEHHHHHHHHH
In words: ELISA OD450, supernatant. As to the method:
Hybridoma culture supernatants from 319 hybridomas obtained as described above were screened for their ability to bind Avi-His-tagged huTfR ECD, huTfR apical domain, and muTfR ECD (as described in Example 1) as compared to binding to an irrelevant Avi-His-tagged control protein. Briefly, 96-well polystyrene plates were coated with 5 μg/ml of streptavidin (Thermo Fisher, Cat #PI21125) in coating buffer (0.05M carbonate buffer, pH 9.6, Sigma, Cat #C3041) overnight at 4° C. Coated plates were then blocked with ELISA diluent (PBS+0.5% BSA+0.05% Tween20) for one hour. Blocking buffer was removed and Avi-His-tagged human TfR, human TfR apical domain, mouse TfR and an irrelevant Avi-His-tagged protein were added at 1 μg/ml in ELISA diluent and captured for 1 hour at room temperature. After washing three times with 300 μl of PBST (PBS+0.05% Tween20, Thermo 28352), the hybridoma cell culture supernatants were added (50 μl/well) to each well. After 30 minutes of incubation at room temperature, the plates were washed three times with 300 μl of PBST. Anti-mouse IgG Fc-HRP or anti-rat IgG Fc-HRP (Jackson Immunoresearch, Cat #115-035-071 and 112-036-071, respectively) secondary antibodies were diluted 1:5000 in ELISA diluent, added to each well at 50 μl/well, and incubated for 30 minutes at room temperature with shaking. After a final set of washes (3×300 μl in PBST), 50 μl/well of BioFx TMB substrate (Surmodics, Cat #TMBW-1000-01) was added to the wells. The reaction was then quenched after 5-10 mins with 50 μl/well of 2N sulfuric acid. The plates were read for absorbance at 450 nm on a SpectraMax M5 (Molecular Devices, Sunnyvale, CA) using SoftMax Pro software.
Background: In an ELISA, binding on a coated surface is turned into a signal by an enzyme label.

In test [2] the target is T2, Full length Mouse TfR on CHO cells (mouse, UniProt Q62351 1-763).
T2 construct: also called CHO + muTfR
In words: FACS MFI, supernatant. The procedure: (§1) A total of 1536 anti-TfR hybridoma supernatants were initially screened for their ability to differentially bind CHO cells overexpressing human or mouse TfR cells compared to CHO parental cells by FACS. Overexpressing cells were harvested, washed and labeled with Pacific Blue, FITC and Pacific Orange dyes (ThermoFisher) to create uniquely barcoded cell populations. Barcoded cells (5×10⁴ of each cell population) were aliquoted into 96-well U-bottom plates and incubated with 50 μl of hybridoma cell culture supernatant or […] of commercially available purified mouse anti-human TfR monoclonal antibody (Sigma Aldrich, Cat #SAB4700515) and rat anti-mouse TfR antibody (Invitrogen, Waltham, MA, Cat #R17217) on ice for 30 minutes. After this primary incubation, the supernatants were removed via centrifugation, the cells were washed twice with 175 μl of ice-cold FACS buffer (PBS+1% FBS+2 mM EDTA), and the cells were then further incubated on ice for 20 minutes with anti-mouse IgG Fc-allophycocyanin (APC) or anti-rat IgG Fc-APC (Jackson Labs, Cat #115-136-071 and Cat #112-136-071, respectively) (diluted 1:1000). Following this secondary antibody incubation, the cells were again washed twice with ice-cold FACS buffer and resuspended in a final volume of 50 μl of FACS buffer. Binding intensity on cells was analyzed using the FACS Canto system (BD Biosciences), and the ratio of APC Mean Fluorescence Intensity (MFI) on each barcoded cell population was determined for each anti-TfR hybridoma supernatant tested.

The target in test [3] is T3, Full length human TfR on CHO cells (human, UniProt P02786 1-760).
T3 construct: also called CHO + huTfR; CHO + hTfR
In words: FACS MFI, supernatant. The procedure: as §1

Test [4] has as its target T2, Full length Mouse TfR on CHO cells. In words: FACS, CHO+muTfR. The procedure:
as §1
On the technique in general: Flow cytometry measures light scatter and fluorescence of single cells or particles in a stream.

T2 sequence (Q62351 whole entry): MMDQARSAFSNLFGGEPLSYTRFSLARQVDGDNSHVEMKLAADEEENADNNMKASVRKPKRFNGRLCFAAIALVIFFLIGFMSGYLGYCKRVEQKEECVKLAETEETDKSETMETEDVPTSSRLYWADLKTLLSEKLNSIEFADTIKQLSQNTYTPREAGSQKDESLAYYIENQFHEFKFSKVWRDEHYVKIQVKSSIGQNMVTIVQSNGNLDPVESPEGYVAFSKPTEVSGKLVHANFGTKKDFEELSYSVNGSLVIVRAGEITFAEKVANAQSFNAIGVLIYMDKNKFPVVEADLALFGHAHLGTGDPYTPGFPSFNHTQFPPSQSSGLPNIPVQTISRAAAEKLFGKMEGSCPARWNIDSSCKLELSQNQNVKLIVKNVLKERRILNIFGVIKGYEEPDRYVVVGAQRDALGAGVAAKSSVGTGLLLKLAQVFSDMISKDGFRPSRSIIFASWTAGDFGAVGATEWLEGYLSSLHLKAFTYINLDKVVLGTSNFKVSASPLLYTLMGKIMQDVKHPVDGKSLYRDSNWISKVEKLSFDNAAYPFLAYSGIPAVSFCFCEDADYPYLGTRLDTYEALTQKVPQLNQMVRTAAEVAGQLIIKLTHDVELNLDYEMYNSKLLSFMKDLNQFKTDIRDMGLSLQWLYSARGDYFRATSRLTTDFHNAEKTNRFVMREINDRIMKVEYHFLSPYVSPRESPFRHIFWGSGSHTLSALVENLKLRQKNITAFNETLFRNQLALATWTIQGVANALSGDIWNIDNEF
T3 sequence (P02786 whole entry): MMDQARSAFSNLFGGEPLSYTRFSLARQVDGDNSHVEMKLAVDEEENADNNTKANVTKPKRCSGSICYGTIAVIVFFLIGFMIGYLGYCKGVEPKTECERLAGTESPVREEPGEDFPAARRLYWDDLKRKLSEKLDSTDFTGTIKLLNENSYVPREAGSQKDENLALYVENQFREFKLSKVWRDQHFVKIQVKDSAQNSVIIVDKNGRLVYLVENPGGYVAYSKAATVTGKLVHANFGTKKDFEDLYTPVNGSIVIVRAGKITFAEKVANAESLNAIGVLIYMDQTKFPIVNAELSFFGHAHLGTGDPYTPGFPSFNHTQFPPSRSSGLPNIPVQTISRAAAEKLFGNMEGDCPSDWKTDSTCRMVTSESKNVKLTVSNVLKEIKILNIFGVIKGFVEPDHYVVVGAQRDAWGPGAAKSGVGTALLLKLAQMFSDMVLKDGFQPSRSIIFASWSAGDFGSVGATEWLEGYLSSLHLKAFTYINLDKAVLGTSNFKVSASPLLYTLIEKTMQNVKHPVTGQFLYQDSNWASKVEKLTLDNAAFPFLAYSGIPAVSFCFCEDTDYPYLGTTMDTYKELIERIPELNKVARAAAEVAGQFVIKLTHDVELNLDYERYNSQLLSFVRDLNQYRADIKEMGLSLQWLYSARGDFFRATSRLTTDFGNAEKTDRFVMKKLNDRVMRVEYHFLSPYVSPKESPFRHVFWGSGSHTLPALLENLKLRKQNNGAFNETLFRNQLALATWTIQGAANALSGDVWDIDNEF

B1: TfR32 (mouse hybridoma antibody) (antibody, V domains shown)
VH: QVQLQQSGADLVRPGTSVKVSCKASGNAFSNYLIEWVKQRPGQGLEWIGVINPGSGETNYNEKFKGKATLTADKSSSTAYMQLSSLTSDDSAVYFCAIRYDGPLLDHWGQGTSVTVSS
VL: SIVMTQTPKFLLVSAGDRVTITCKASQSVSNDVAWFQQKPGQSPKLLIYYASNRYTGVPDRFTGSGYGTDFTFTIRNVQAEDLAVYFCQQDYISPTFGAGTKLELK
notes: mouse IgG in hybridoma supernatant
With B1, in test [1], the “ratio over irrelevant protein” value came out at 25 fold. Besides, the entries for the “fold over parental (CHO WT)” value in test [2] and in test [3] were 1 fold and 137 fold, respectively. In test [4], the binding result is “no binding”.
